Consider 1 protein from article PMC4141209.

Substrate in the data set: O=C(O)[C@H]1NCC[C@@H]1O
Nature of the data set: purified protein. As to conditions: pH 8.0 Tris-HCl, 50 °C, 0.15 mM NADH, TlLhpI as coupling enzyme.

B1: TlLhpH (Thermococcus litoralis DSM 5473) (protein)
chain: MFKKLENLEKWEPPKDWMVIKTLDTHTAGEPLRIILSGFPEIPGKTILEKRRYLMENLDHLRKALMWEPRGHADMYGAIITEPVSEEADFGVIFMHNEGYSTMCGHATIALGKVAVECGLVEAKEPITEIKMDSPAGLIKIYVKVRDGKVEKVYFHNVPSFVLFKDETINVPGIGEVKYDLAYGGAFYAFVNAEEIGLKCTPEYYRQLIDVGMKIKRAIMSEKEIRHPFEEDLSFLYGTIFIGEPEDENSHSRHVCIFADGEVDRSPTGTGVSARLAILYEKGEIDIGEEITIESIIGTKFTGKVVEETRYGLYRAIIPEVGGNAYIVAKNTFLIDPQDPLKYGFFLR
In general, Km refers to the substrate concentration at which the rate is half of its maximum. Broadly, the kcat is the number of substrate molecules converted per active site and unit of time at saturation. For the protein B1, the Km is 288 µM and the kcat is 28.5 s⁻¹.
